Results reported in patent US20090170219, “Nucleic acid capable of binding to immunoglobulin G and use thereof” (published 2009).

How the values were obtained:
[1] = target: IgG (rabbit, UniProt P01870 P01870:1-323); experiment: SPR; settings: tags: Zymed Laboratories, chain copies: 2, label: 3' A16 tail for immobilisation
Experimental: (§1) Used for the measurements was BIAcore 2000 manufactured by BIAcore. Used as the sensor chip was the SA chip having streptavidin immobilized thereon. Bound thereto was about 1000 RU of 16-residue Poly dT having biotin bound to the 5′ end thereof. The RNA for use as the ligand had 16-residue Poly A added to the 3′ end thereof, and immobilized to the SA chip via a bond between dT and A. The amount immobilized was adjusted to about 1000 RU by injecting 60 μL at a concentration of 0.01 μg/μL. 70 μL of IgG-Fc for analyte (manufactured by Athens Research & Technology), adjusted to 0.6 μM, was injected. The running buffer used had the same components as those of the solution A used in SELEX.
(§2) Whether or not the prepared RNA aptamers also have binding affinity for subclasses of IgG other than human IgG1 or for IgG of animal species other than humans was determined using a surface plasmon resonance method. Measurements were performed in the same manner as Example 1 by immobilizing a nucleic acid having 16-residue Poly A added thereto via an A-pT bond, and injecting IgG thereto. Used as the RNA aptamers were the nucleic acids shown by SEQ ID NO:1 and 17. Used as the antibodies were human IgG1 (manufactured by Calbiochem), human IgG2 (manufactured by Calbiochem), human IgG3 (manufactured by Calbiochem), human IgG4 (manufactured by Calbiochem), mouse IgG1 (manufactured by Chemicon International), mouse IgG2a (manufactured by Chemicon International), mouse IgG2b (manufactured by Zymed Laboratories), mouse IgG3 (manufactured by Bethyl Laboratories), rat IgG1 (manufactured by R & D Systems), rat IgG2a. (manufactured by Zymed Laboratories), rat IgG2b. (manufactured by Zymed Laboratories), rat IgG2c (manufactured by UK-Serotec), rabbit IgG (manufactured by Zymed Laboratories), bovine IgG1 (manufactured by Bethyl Laboratories), bovine IgG2 (manufactured by Bethyl Laboratories), chicken IgG (manufactured by Rockland), dog IgG (manufactured by Rockland), cat IgG (manufactured by Bethyl Laboratories), guinea pig IgG (manufactured by Biogenesis), hamster IgG (manufactured by Rockland), and swine IgG (manufactured by Rockland).

[2] = target: IgG2a (mouse, UniProt P01863 P01863:98-330); experiment: SPR; settings: tags: Chemicon International, chain copies: 2, label: 3' A16 tail for immobilisation
Experimental: as §1, §2

[3] = target: IgG2 (human, UniProt P01859-1 P01859-1:99-326); experiment: SPR; settings: tags: Calbiochem, chain copies: 2, label: 3' A16 tail for immobilisation
Experimental: as §1, §2

[4] = target: IgG3 (human, UniProt P01860-1 P01860-1:99-377); experiment: SPR; settings: tags: Calbiochem, chain copies: 2, label: 3' A16 tail for immobilisation
Experimental: as §1, §2

[5] = target: IgG4 (human, UniProt P01861-1 P01861-1:99-327); experiment: SPR; settings: tags: Calbiochem, chain copies: 2, label: 3' A16 tail for immobilisation
Experimental: as §1, §2

[6] = target: IgG2c (rat, UniProt P20762 P20762:1-329); experiment: SPR; settings: tags: UK-Serotec, chain copies: 2, label: 3' A16 tail for immobilisation
Experimental: as §1, §2

[7] = target: IgG2b (mouse, UniProt P01867-2 P01867-2:98-335); experiment: SPR; settings: tags: Zymed Laboratories, chain copies: 2, label: 3' A16 tail for immobilisation
Experimental: as §1, §2

[8] = target: Protein A (UniProt P02976 P02976:37-485); experiment: SPR; control; Protein A bound only when IgG1 was on the aptamer; settings: tags: MP Biomedicals; label: 3' A16 tail for immobilisation; GGUGCU bulge
Experimental: as §1

[9] = target: T1, IgG1 (human, UniProt P01857-1 P01857-1:1-330); experiment: SPR; solution A: 145 mM NaCl, 5.4 mM KCl, 1.8 mM CaCl2, 0.8 mM MgCl2, 20 mM Tris pH 7.6; settings: tags: Calbiochem; chain copies: 2; label: 3' A16 tail for immobilisation; GGUGCU bulge
Experimental: as §1
The dissociation constant was determined by immobilizing an RNA having 16-residue PolyA added to the 3′ end thereof onto a sensor chip via an A-dT bond, injecting different concentrations of IgG (0.6 μM to 0.05 μM), and performing surface plasmon resonance.

[10] = target: T1, IgG1; experiment: SPR; +++ in Table 4; binding not reduced in 500 mM NaCl, 2 mM MgCl2; settings: tags: Calbiochem; chain copies: 2
[11] = target: T1, IgG1; experiment: SPR; text says higher than SEQ 17, table shows equal; settings: tags: Calbiochem; chain copies: 2
Experimental: as §1
The RNAs were prepared by chemical synthesis (manufactured by Gene Design). Their binding affinities were measured by a surface plasmon resonance method as in Example 1. Used as the IgG was human IgG1 (manufactured by Calbiochem).

[12] = target: T1, IgG1; experiment: SPR; solution A; short aptamers fit bivalent 1:2 model better; settings: tags: Calbiochem; chain copies: 2; label: 3' A16 tail for immobilisation

T1 sequence (P01857 other isoform, or with tags, fused parts or gaps): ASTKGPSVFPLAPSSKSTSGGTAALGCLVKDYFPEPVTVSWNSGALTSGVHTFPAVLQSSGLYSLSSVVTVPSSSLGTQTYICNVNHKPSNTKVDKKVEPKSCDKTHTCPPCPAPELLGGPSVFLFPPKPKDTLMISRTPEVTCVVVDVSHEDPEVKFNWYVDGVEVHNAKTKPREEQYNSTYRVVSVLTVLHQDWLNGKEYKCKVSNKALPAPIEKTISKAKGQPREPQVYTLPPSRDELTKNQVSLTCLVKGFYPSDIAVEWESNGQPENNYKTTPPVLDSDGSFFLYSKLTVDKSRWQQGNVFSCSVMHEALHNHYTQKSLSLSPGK
Chain of IgG (P01870 whole entry, one chain of several): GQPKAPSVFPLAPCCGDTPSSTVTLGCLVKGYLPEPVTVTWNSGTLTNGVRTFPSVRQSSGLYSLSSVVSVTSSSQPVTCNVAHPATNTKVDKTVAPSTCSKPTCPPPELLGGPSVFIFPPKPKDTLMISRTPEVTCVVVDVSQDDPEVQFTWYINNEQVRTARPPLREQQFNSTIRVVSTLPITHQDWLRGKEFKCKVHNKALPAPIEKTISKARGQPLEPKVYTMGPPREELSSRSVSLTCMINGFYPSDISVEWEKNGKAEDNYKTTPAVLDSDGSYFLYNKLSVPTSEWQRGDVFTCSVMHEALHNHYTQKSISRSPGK
Chain of IgG2b (P01867 other isoform, or with tags, fused parts or gaps): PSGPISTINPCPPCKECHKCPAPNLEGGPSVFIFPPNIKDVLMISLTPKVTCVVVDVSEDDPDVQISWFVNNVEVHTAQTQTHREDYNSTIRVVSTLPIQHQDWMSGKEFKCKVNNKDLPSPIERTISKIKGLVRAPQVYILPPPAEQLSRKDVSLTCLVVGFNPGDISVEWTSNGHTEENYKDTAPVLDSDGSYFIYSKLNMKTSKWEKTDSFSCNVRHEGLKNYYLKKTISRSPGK
Chain of IgG2 (P01859 other isoform, or with tags, fused parts or gaps): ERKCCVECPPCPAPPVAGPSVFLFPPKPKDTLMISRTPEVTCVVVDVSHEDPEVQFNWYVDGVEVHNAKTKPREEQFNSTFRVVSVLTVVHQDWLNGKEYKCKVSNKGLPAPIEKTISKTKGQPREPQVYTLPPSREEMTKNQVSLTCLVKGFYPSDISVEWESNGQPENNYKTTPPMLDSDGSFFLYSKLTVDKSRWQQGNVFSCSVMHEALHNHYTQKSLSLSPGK
Chain of IgG2c (P20762 whole entry, one chain of several): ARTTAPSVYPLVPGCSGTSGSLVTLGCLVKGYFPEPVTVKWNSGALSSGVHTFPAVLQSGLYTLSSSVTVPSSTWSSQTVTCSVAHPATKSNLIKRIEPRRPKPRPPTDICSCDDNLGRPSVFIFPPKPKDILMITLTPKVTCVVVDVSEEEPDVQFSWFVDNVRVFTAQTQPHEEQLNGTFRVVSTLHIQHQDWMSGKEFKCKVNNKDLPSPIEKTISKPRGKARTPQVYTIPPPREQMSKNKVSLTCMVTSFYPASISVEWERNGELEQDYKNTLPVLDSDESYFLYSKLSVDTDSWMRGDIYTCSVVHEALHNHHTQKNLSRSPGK
Chain of IgG3 (P01860 other isoform, or with tags, fused parts or gaps): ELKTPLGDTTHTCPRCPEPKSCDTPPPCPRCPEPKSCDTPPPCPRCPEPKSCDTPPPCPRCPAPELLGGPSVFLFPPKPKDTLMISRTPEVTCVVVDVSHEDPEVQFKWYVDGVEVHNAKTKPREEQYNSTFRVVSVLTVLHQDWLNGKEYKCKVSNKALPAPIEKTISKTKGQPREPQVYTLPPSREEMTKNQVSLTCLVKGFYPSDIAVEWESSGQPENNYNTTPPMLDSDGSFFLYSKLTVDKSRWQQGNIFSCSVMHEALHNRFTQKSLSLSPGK
Chain of IgG2a (P01863 98-330, one chain of several): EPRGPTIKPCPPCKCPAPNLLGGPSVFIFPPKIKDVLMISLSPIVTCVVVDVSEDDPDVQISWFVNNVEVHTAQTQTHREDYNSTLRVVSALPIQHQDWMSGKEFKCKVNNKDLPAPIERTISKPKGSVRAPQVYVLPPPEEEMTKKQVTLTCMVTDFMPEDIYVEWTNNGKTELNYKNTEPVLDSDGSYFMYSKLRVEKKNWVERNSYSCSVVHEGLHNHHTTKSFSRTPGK
Chain of IgG4 (P01861 other isoform, or with tags, fused parts or gaps): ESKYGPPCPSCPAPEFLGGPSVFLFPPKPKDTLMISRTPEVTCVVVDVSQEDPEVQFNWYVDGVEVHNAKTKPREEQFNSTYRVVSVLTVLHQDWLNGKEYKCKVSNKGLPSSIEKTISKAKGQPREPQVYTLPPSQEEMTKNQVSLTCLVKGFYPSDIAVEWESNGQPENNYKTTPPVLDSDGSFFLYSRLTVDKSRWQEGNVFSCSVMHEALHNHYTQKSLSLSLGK
Chain of Protein A (P02976 37-485, one chain of several): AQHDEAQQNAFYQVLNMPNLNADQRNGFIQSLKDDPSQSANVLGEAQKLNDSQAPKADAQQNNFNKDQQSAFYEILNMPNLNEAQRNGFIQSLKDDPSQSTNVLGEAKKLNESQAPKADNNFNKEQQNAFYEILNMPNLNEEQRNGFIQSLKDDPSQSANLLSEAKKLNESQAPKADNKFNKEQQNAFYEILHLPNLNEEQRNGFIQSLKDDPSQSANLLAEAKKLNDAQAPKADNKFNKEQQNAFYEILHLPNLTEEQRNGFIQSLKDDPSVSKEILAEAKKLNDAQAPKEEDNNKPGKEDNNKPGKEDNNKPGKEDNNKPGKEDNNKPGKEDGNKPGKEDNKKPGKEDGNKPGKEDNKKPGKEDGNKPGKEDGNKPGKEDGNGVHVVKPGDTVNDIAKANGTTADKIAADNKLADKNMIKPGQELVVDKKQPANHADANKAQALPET

B1: SEQ ID NO:1 (ssRNA)
RNA: GGGACACAAUGGACGAGUUACAGGUGCUCCAUCAACAAAAUGUUACAUGGAACUGUAACGGCCGACAUGAGAG
modifications: 2'-F at all pyrimidines
binding result ([1]; GGUGCU bulge): no binding | binding result ([2]; GGUGCU bulge): no binding | binding result ([3]; GGUGCU bulge): binds | binding result ([4]; GGUGCU bulge): binds | binding result ([5]; GGUGCU bulge): binds | binding result ([6]; GGUGCU bulge): no binding | binding result ([7]; GGUGCU bulge): no binding | binding result [8]: no binding | Kd [9]: 0.3 nM

B2: SEQ ID NO:17-7 (23F23) (mixed)
RNA: GGAGGUGCUCCGAAAGGAACUCCAAAAAAAAAAAAAAAA
modifications: deoxy G1 G2 C8 C10 C11 G12-A15 A18 A19 C22 C23 and A16 tail; 2'-F U6 U9 C20 U21; rest 2'-OH
binding result [10]: binds

B3: SEQ ID NO:17-9 (23F32) (mixed)
RNA: B2 RNA
modifications: as 17-7 with 2'-OMe G16
binding result [11]: binds

B4: SEQ ID NO:17 (ssRNA)
RNA: GGAGGUGCUCCGAAAGGAACUCC
modifications: 2'-F at all pyrimidines
Kd [12]: 10 nM | binding result [1]: no binding | binding result [2]: no binding | binding result [3]: binds | binding result [4]: binds | binding result [5]: binds | binding result [6]: no binding | binding result [7]: no binding
